Experiments:
IL-TIF protein (human) = IL-TIF protein (human) (UniProt Q9GZX6); experiment: cell-based or functional assay
[1] = biological target: zcytor11 and CRF2-4 receptors co-expressed on transfected BaF3 or BHK cells (human) (UniProt Q08334); experiment: cell-based or functional assay
Chain of zcytor11 and CRF2-4 receptors co-expressed on transfected BaF3 or BHK cells (human) (chain, as listed by the source limits assumed, form in doubt, chain 1 of 2): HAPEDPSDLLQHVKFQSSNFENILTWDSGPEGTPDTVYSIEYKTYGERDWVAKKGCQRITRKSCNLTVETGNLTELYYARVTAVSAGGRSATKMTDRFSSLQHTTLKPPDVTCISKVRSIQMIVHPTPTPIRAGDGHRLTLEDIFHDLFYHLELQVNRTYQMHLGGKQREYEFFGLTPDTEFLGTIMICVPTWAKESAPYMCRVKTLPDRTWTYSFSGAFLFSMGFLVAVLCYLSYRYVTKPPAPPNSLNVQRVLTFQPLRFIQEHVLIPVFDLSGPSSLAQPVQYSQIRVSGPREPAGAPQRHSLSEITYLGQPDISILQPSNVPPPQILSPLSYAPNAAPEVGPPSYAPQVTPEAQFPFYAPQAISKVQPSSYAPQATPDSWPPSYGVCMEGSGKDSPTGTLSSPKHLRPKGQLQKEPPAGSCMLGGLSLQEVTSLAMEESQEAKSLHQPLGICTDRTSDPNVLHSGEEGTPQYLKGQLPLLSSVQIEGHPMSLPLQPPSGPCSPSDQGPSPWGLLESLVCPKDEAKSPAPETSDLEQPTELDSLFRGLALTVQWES
Chain of zcytor11 and CRF2-4 receptors co-expressed on transfected BaF3 or BHK cells (human) (Q08334 20-325 limits assumed, form in doubt, chain 2 of 2): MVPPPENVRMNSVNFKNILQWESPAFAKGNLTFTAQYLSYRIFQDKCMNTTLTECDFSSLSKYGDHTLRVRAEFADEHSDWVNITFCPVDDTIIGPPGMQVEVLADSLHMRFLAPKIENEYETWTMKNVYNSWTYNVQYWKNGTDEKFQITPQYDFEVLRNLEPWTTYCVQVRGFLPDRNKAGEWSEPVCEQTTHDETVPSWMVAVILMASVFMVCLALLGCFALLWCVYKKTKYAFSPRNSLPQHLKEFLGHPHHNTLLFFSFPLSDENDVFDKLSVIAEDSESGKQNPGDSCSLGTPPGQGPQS

Chain of IL-TIF protein (human) (Q9GZX6 34-179 limits assumed, form in doubt): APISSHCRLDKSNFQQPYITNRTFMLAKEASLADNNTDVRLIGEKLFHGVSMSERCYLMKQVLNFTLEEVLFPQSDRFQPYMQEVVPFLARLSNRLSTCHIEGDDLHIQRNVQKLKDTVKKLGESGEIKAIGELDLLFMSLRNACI

With “CRF2-4/zcytor11-Fc soluble receptor heterodimer (Fc fusion)” the inhibition of IL-TIF-induced proliferation of BaF3/CRF2-4/zcytor11 cells (Alamar Blue): concentration at which inhibition was barely detectable (IL-TIF protein (human)) was 1.6 ng/mL, the inhibition of IL-TIF-induced proliferation of BaF3/CRF2-4/zcytor11 cells (Alamar Blue): concentrations giving complete inhibition (IL-TIF protein (human)) was 25 to 200 ng/mL and the inhibition of IL-TIF-induced proliferation of BaF3/CRF2-4/zcytor11 cells (Alamar Blue): concentrations giving partial inhibition (IL-TIF protein (human)) was 3.1 to 12.5 ng/mL.

For “IL-TIF protein (from UniProt Q9GZX6 34-179) (ligand)”, the proliferation of BaF3/CRF2-4/zcytor11 cells (Alamar Blue), IL-TIF at 100 pg/ml (fold over background) [1] was 30.
